Reference: the supplement of paper PMC10567573

B1: PCDHGA10 (parent)
chain: FHELQMQVTASDSGDPPLSSNVSL

Variants of: B1
Experiment: protein stability index of a GFP-peptide fusion (GPS, HEK-293T) (PSI 1-6); higher = more stable
Conditions: c terminus: a fixed tail appended
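Note: lentivirally expressed fusions sorted by FACS into six bins by GFP to DsRed ratio, PSI derived from sequencing read proportions per bin multiplied by bin number.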

| Variant | protein stability index |
| --- | --- |
| FHELQMQVTASDSGDPPLSSGVSL [N21G] | 2.24 |
| FHELQMQVTASDSGDPPLSSAVSL [N21A] | 2.25 |
| FHELQMQVTASDSGDPPLSSSVSL [N21S] | 2.1 |
| FHELQMQVTASDSGDPPLSSQVSL [N21Q] | 2.05 |
| FHELQMQVTASDSGDPPLSSFVSL [N21F] | 1.54 |
| FHELQMQVTASDSGQPPLSSNVSL [D15Q] | 2.04 |
| FHELQMQVTASDSGYPPLSSNVSL [D15Y] | 1.42 |
| FHELQMQVTASDSGCPPLSSNVSL [D15C] | 1.79 |
| FHELQMQVTASDSGNPPLSSNVSL [D15N] | 2.48 |
| FHELQMQVTASDSGFPPLSSNVSL [D15F] | 1.4 |
| FHELQMQVTASDSGSPPLSSNVSL [D15S] | 1.67 |
| FHERQMQVTASDSGDPPLSSNVSL [L4R] | 2.77 |
| FHEVQMQVTASDSGDPPLSSNVSL [L4V] | 2.84 |
| FHEAQMQVTASDSGDPPLSSNVSL [L4A] | 2.76 |
| FHEEQMQVTASDSGDPPLSSNVSL [L4E] | 4.19 |
| FHEWQMQVTASDSGDPPLSSNVSL [L4W] | 2.2 |
| FHEIQMQVTASDSGDPPLSSNVSL [L4I] | 2.28 |
| FHESQMQVTASDSGDPPLSSNVSL [L4S] | 3.46 |
| FHEFQMQVTASDSGDPPLSSNVSL [L4F] | 1.39 |
| FHENQMQVTASDSGDPPLSSNVSL [L4N] | 3.6 |
| FHELQMQVTASDSGDPGLSSNVSL [P17G] | 2.14 |
| FHELQMQVTASDSGDPCLSSNVSL [P17C] | 1.56 |
| FHELQMQVTASDSGDPQLSSNVSL [P17Q] | 1.93 |
| FHELQMQVTASDSGDPVLSSNVSL [P17V] | 1.78 |

| Variant | protein stability index |
| --- | --- |
| FHELQMQVTASDSGDPDLSSNVSL [P17D] | 2.28 |
| FHELQMQVTASDSGDPALSSNVSL [P17A] | 2.29 |
| FHELQMQVTASDSGDPFLSSNVSL [P17F] | 1.97 |
| FHELQMQVTASDSGDPPLTSNVSL [S19T] | 2.02 |
| FHELQMQVTASDSGDPPLHSNVSL [S19H] | 1.81 |
| FHELQMQVTASDSGDPPLPSNVSL [S19P] | 2.2 |
| FHELQMQVTASDSGDPPLWSNVSL [S19W] | 2.45 |
| FHELQMQVTASDSGDPPLQSNVSL [S19Q] | 2.36 |
| FHELQMQVTASDSGDPPLCSNVSL [S19C] | 1.93 |
| FHELQMQVTASDSGDPPLLSNVSL [S19L] | 1.85 |
| FHELQMQVTASDSGDPPLESNVSL [S19E] | 3.04 |
| FHELQMQVTASDSGDPPLASNVSL [S19A] | 2.17 |
| FHELQMQVTASDSGDPPLSDNVSL [S20D] | 3.06 |
| FHELQMQVTASDSGDPPLSYNVSL [S20Y] | 1.83 |
| FHELQMQVTASDSGDPPLSANVSL [S20A] | 1.82 |
| FHELQMQVTASDSGDPPLSCNVSL [S20C] | 1.62 |
| IHELQMQVTASDSGDPPLSSNVSL [F1I] | 3.74 |
| MHELQMQVTASDSGDPPLSSNVSL [F1M] | 4.06 |
| LHELQMQVTASDSGDPPLSSNVSL [F1L] | 4.5 |
| QHELQMQVTASDSGDPPLSSNVSL [F1Q] | 4.62 |
| NHELQMQVTASDSGDPPLSSNVSL [F1N] | 4.61 |
| RHELQMQVTASDSGDPPLSSNVSL [F1R] | 4.66 |
| PHELQMQVTASDSGDPPLSSNVSL [F1P] | 4.8 |
